Experimental data from patent US20140050719A1 (GlaxoSmithKline, published 2014).

Target: T1, human Aβ peptide (1-40) biotinylated at the C terminus (human, UniProt P05067 672-711, biotinylated at the C terminus)
T1 construct: domain: beta-amyloid peptide (1-40); the peptide starts at the BACE-1 cleavage site (DAEFRHD...); also called beta-amyloid 1-40 peptide (biotinylated at the C-terminus); streptavidin-captured beta-amyloid (1-40)
Test: Biacore SPR, similar to Method A(i); streptavidin-captured beta-amyloid (1-40), Fab in solution

T1 sequence (P05067 672-711 limits assumed): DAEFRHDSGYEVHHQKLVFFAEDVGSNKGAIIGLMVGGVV

B1: Fab fragments of H2L1, obtained by papain digestion (Fab, V domains shown)
VH: EVQLVESGGGLVQPGGSLRLSCAVSGFTFSDNGMAWVRQAPGKGLEWVSFISNLAYSIDYADTVTGRFTISRDNAKNSLYLQMNSLRAEDTAVYYCVSGTWFAYWGQGTLVTVSS
VL: DIVMTQSPLSLPVTPGEPASISCRVSQSLLHSNGYTYLHWYLQKPGQSPQLLIYKVSNRFSGVPDRFSGSGSGTDFTLKISRVEAEDVGVYYCSQTRHVPYTFGGGTKVEIKR
notes: also called H2L1 Fab
- Kd: ~2.4 nM
